Data on one molecule can be found in publication PMC12102760.

This assay deals with IgG 1C1. The experiment in a line: BLI; IgG captured on anti-human biosensors, quenched with Fc; receptor ECD-Fc in solution, three-fold dilutions from 300 nM; PBS, 1% BSA, 0.05% Tween 20; 25°C; 1:1 binding model.
IgG 1C1, sequence (heavy, as listed by the source, chain 1 of 2): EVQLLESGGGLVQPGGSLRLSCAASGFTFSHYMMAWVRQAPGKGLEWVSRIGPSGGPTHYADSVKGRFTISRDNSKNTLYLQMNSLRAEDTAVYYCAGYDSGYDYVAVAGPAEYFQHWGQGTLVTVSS
IgG 1C1, sequence (light, as listed by the source, chain 2 of 2): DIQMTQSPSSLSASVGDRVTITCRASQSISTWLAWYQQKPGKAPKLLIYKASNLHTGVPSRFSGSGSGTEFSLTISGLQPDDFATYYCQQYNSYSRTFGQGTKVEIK

B1: EphA8-Fc (Fc fusion)
chain: ARGEVNLLDTSTIHGDWGWLTYPAHGWDSINEVDESFQPIHTYQVCNVMSPNQNNWLRTSWVPRDGARRVYAEIKFTLRDCNSMPGVLGTCKETFNLYYLESDRDLGASTQESQFLKIDTIAADESFTGADLGVRRLKLNTEVRSVGPLSKRGFYLAFQDIGACLAILSLRIYYKKCPAMVRNLAAFSEAVTGADSSSLVEVRGQCVRHSEERDTPKMYCSAEGEWLVPIGKCVCSAGYEERRDACVACELGFYKSAPGDQLCARCPPHSHSAAPAAQACHCDLSYYRAALDPPSSACTRPPSAPVNLISSVNGTSVTLEWAPPLDPGGRSDITYNAVCRRCPWALSRCEACGSGTRFVPQQTSLVQASLLVANLLAHMNYSFWIEAVNGVSDLSPEPRRAAVVNITTNQAAPSQVVVIRQERAGQTSVSLLWQEPEQPNGIILEYEIKYYEKDKEMQSYSTLKAVTTRATVSGLKPGTRYVFQVRARTSAGCGRFSQAMEVETGKPRPRYDTRT
What is called Kd is the equilibrium constant for the complex coming apart. A low value points to tighter binding. B1 registered a dissociation constant Kd of 970 nM.
